# According to patent US20210063414A1, “METHODS FOR PREVENTING AND/OR TREATING BONE LOSS CONDITIONS BY MODULATING IRISIN” (Dana-Farber Cancer Institute, Inc., priority 2018, published 2021):
# Columns and labels:
# Assay in all cases: Crosslinking/co-immunoprecipitation/mass spectrometry (TMT quantitative proteomics) to identify irisin receptors
# Assay type in all cases: binding
# [1] = molecular target: T1, MLO-Y4 cell surface proteins (Mus musculus, UniProt Q9Z2I9); conditions: co-precipitated protein Sucla2 (SUCB1_MOUSE)
# T1 construct: endogenous in cells; host or cells: MLO-Y4
# T1 sequence (Q9Z2I9 54-463): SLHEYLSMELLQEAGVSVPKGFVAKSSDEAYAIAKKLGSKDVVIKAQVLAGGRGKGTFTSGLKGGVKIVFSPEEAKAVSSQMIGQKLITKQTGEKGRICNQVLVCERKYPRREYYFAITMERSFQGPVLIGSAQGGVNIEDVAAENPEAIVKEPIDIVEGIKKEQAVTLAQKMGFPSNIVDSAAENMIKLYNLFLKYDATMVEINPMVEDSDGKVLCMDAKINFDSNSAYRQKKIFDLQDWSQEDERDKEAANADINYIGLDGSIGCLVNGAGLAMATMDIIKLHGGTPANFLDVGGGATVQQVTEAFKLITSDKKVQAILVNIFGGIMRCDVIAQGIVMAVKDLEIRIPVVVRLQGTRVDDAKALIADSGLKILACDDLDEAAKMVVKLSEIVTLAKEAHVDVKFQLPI
# Procedure, shortened: (§1)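 Mouse MLO-Y4 cells were switched to serum-free FreeStyle medium for 4 h, chilled, then exposed to 10 nM His-tagged irisin (or adipsin as control) for 20 min. Cells were crosslinked with 1.5 mM DTSSP (30 min, ice), and bound proteins were pulled down on Ni-NTA and eluted with 250 mM imidazole. Eluates were separated by SDS-PAGE, trypsin-digested in gel, TMT 6-plex labelled and quantified by MS3-based LC-MS/MS on an Orbitrap Fusion Lumos.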
# [2] = molecular target: T2, MLO-Y4 cell surface proteins (Mus musculus, UniProt G3X9C2); conditions: co-precipitated protein Nccrp1 (FBX50_MOUSE)
# T2 construct: endogenous in cells; host or cells: MLO-Y4
# T2 sequence (G3X9C2 1-266): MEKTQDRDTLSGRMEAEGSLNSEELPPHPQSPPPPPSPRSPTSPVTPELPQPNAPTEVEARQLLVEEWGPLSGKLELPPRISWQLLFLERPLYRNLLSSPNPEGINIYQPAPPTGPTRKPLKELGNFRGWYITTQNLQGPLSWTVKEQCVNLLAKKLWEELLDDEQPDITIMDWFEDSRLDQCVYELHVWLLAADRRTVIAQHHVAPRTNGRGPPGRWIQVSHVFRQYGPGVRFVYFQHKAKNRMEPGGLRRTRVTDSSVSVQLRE
# Procedure, shortened: as §1
# [3] = molecular target: T3, MLO-Y4 cell surface proteins (Mus musculus, UniProt Q9CYR0); conditions: co-precipitated protein Ssbp1 (SSBP_MOUSE)
# T3 construct: endogenous in cells; host or cells: MLO-Y4
# T3 sequence (Q9CYR0 17-152): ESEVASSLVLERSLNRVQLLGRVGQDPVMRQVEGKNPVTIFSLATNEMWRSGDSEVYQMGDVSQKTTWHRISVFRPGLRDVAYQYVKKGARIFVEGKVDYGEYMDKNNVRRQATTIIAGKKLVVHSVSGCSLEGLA
# Procedure, shortened: as §1
# [4] = molecular target: T4, MLO-Y4 cell surface proteins (Mus musculus, UniProt E9Q557); conditions: co-precipitated protein Dsp (DESP_MOUSE)
# T4 construct: endogenous in cells; host or cells: MLO-Y4
# T4 sequence (E9Q557 whole entry): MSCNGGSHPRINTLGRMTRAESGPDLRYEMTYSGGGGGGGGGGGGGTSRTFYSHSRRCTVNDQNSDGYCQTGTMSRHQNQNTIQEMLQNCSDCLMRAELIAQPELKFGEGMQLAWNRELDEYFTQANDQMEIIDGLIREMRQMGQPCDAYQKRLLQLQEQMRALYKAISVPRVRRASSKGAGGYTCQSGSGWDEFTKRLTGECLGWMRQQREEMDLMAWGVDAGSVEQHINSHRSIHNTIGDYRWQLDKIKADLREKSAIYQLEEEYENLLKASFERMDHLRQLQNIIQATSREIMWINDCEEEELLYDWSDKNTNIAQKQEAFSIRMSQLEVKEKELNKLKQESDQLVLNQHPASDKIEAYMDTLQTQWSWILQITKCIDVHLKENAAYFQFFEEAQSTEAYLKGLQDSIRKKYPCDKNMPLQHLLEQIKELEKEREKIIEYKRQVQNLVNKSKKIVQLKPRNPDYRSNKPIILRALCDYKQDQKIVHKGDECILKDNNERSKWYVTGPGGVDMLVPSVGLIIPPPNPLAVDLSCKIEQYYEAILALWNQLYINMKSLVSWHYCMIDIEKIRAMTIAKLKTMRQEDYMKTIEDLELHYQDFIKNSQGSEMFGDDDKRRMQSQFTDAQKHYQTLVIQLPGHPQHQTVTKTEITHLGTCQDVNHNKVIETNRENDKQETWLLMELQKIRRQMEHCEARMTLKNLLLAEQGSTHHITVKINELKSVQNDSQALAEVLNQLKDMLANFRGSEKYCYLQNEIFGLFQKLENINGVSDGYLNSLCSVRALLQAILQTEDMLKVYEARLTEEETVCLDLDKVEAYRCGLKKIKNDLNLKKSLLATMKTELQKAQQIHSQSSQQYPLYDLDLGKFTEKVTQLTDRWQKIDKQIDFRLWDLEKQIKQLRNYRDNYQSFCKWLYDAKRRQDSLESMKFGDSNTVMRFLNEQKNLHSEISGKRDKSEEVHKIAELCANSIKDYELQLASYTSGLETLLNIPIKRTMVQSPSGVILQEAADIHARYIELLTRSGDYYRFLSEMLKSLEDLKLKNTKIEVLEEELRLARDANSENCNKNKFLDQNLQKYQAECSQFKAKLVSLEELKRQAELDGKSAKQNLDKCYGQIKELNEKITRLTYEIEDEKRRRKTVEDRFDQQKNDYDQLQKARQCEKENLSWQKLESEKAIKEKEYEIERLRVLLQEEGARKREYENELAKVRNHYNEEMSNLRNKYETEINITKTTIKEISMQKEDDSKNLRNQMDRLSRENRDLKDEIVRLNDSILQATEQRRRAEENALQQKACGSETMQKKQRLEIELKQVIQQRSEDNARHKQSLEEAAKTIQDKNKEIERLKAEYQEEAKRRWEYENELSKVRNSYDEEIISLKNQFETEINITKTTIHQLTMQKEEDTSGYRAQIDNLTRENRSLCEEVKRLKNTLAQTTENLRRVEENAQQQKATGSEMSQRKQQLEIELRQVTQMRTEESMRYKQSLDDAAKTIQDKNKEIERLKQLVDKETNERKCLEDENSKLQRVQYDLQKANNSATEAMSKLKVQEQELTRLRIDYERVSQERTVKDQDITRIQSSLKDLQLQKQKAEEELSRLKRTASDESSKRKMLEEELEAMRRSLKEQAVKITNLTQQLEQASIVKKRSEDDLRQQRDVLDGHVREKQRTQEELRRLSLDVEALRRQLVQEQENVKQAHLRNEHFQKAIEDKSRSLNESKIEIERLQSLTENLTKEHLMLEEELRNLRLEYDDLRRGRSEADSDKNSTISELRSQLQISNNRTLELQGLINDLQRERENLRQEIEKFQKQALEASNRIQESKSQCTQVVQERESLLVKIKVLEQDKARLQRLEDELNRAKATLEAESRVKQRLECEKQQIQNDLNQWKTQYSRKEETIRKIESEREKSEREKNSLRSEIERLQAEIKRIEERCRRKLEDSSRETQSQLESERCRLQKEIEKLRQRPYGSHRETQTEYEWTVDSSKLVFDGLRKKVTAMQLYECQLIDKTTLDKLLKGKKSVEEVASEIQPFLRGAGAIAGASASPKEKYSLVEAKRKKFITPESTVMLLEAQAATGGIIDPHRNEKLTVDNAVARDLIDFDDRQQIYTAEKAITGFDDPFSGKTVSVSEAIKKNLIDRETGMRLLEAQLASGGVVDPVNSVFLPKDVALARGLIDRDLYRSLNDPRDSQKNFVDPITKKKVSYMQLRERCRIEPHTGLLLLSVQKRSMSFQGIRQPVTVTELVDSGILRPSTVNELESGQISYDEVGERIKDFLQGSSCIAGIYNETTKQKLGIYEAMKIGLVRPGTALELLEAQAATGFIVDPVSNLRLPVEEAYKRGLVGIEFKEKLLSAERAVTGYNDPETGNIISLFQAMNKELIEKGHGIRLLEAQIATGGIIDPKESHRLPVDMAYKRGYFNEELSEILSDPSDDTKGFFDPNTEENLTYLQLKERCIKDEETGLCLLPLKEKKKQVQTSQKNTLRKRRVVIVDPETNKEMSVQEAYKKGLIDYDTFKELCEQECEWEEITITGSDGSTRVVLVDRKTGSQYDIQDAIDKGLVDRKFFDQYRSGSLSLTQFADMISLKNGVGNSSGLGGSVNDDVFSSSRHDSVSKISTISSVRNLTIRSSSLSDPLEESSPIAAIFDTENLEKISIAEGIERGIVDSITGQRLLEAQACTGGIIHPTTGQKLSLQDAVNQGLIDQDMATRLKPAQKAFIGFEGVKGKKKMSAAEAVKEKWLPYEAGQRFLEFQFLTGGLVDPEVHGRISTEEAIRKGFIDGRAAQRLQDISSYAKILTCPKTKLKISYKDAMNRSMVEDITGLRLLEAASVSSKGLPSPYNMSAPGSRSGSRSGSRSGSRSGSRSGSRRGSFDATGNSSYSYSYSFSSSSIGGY
# Procedure, shortened: as §1
substance,measurement,setting,value
adipsin,TMT signal-to-noise ratio,[1],50.8753
same,TMT signal-to-noise ratio,[2],113.564
same,TMT signal-to-noise ratio,[3],432.759
same,TMT signal-to-noise ratio,[4],79.7679
